Source: paper PMC4462951

Columns and labels:
[1] = biological target: T1, Hot1 (Saccharomyces cerevisiae BY4741, UniProt Q03213 1-719); assay: EMSA
T1 sequence: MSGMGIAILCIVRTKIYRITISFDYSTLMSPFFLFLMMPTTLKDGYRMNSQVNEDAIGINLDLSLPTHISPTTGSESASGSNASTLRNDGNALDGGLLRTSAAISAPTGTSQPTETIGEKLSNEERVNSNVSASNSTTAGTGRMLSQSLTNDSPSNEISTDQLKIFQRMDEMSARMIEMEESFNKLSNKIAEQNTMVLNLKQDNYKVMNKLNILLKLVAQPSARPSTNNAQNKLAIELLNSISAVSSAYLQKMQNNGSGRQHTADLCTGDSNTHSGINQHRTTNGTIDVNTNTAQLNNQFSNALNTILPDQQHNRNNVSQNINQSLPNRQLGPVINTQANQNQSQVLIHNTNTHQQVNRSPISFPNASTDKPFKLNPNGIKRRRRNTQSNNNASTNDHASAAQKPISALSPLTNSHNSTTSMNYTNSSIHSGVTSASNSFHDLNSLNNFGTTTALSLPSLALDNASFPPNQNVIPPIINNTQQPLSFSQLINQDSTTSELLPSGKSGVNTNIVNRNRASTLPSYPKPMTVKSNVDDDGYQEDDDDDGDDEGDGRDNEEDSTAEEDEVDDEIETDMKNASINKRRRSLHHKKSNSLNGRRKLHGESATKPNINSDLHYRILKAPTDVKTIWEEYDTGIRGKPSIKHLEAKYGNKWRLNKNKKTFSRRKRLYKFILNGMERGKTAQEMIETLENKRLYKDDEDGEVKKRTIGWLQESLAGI

[2] = biological target: T1, Hot1; assay: competition

B1: STL1 promoter HoRE, E6 probe (dsDNA)
DNA 1: CTATTCCACCGCATTTGGCCCATTTGGCTCACTTTGACTCAACTTGCGTCATTTTAACTGATATG
DNA 2: CATATCAGTTAAAATGACGCAAGTTGAGTCAAAGTGAGCCAAATGGGCCAAATGCGGTGGAATAG
B1: binds [1].

B2: RM9 (E6 with mutated HoRE repeats) (dsDNA)
DNA 1: CTATTCCACCGCATCTGGTCCATCTGGTTCACTCTGATTCAACTTGCGTCATTTTAACTGATATG
DNA 2: CATATCAGTTAAAATGACGCAAGTTGAATCAGAGTGAACCAGATGGACCAGATGCGGTGGAATAG
B2: no binding [2].
